Results taken from the supplement of paper PMC7877785.
± gives the uncertainty stated by the source.

Assay: self-splicing fitness, log relative to wild type (ln ratio); higher = more splicing; Tetrahymena group I intron in knt gene, E. coli kanamycin selection, DiMSum; sequences stand for … in CUCUCU…GGAGGGAAAAGUUAUCAGGCAUGCACCUGGUAGCUAGUCUUUAAACCAAUAGAUUGCAUCGGUUUAAAAGGCAAGACCGUCAAAUUGCGGGAAAGGGGUCAACAGCCGUUCAGUACCAAGUCUCAGGGGAAACUUUGAGAUGGCCUUGCAAAGGGUAUGGUAAUAAGCUGACGGACAUGGUCCUAACCACGCAGCCAAGUCCUAAGUCAACAGAUCUUCUGUUGAUAUGGAUGCAGUUCACAGACUAAAUGUCGGUCGGGGAAGAUGUAUUCUUCUCAUAAGAUAUAGUCGGACCUCUCCUUAAUGGGAGCUAGCGGAUGAAGUGAUGCAACACUGGAGCCGCUGGGAACUAAUUUGUAUGCGAAAGUAUAUUGAUUAGUUUUGGAGUACUCGUGGUCG
How it was run: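 Library with all eight P1ex-region intron nucleotides randomised, intron inside the knt kanamycin-resistance gene on pET-22b(+), in E. coli BL21(DE3). Cells grew overnight at 37°C or 30°C on LB agar with or without 25 μg/mL kanamycin (plus 100 μg/mL carbenicillin, 50 μM IPTG, 0.2% rhamnose), in six replicate transformations. Pooled colonies were amplicon-sequenced on Illumina HiSeq 2500. DiMSum fitness is the error-weighted combination of wild-type-normalised replicate fold changes, kanamycin versus none.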

Sequence | self-splicing fitness (ln) (30 °C) | self-splicing fitness (ln) (37 °C)
CCUCAGCAAUAUUACGUACC | -4.27 ± 0.25 | -3.42 ± 0.39
AACAAGCAAUAUUACGAGCU | -0.919 ± 0.056 | -0.357 ± 0.073
UCUGAGCAAUAUUACGGGCC | -2.67 ± 0.35 | –
AGUUAGCAAUAUUACGAACA | -0.687 ± 0.12 | 0.168 ± 0.17
GGUUAGCAAUAUUACGUCUC | -0.348 ± 0.15 | -0.0912 ± 0.18
GCUGAGCAAUAUUACGCUAA | -3.04 ± 0.32 | –
AUGGAGCAAUAUUACGGGCC | -2.63 ± 0.39 | –
UCGUAGCAAUAUUACGAUAU | -3.38 ± 0.31 | -1.85 ± 0.37
GCAGAGCAAUAUUACGGUCU | -3.54 ± 0.25 | -2.39 ± 0.27
ACCUAGCAAUAUUACGGCUA | -2.93 ± 0.13 | -2.65 ± 0.17
UUUCAGCAAUAUUACGUGAC | -2.99 ± 0.22 | -1.73 ± 0.48
UACUAGCAAUAUUACGAAGU | -3.85 ± 0.42 | -2.32 ± 0.41
GUAAAGCAAUAUUACGCAAA | -0.784 ± 0.13 | -0.594 ± 0.16
UCCGAGCAAUAUUACGAGUA | -1.98 ± 0.16 | -1.1 ± 0.12
CAGAAGCAAUAUUACGAUAC | – | -1.81 ± 0.2
GUCCAGCAAUAUUACGACAA | -1.57 ± 0.14 | -0.902 ± 0.11
CAAGAGCAAUAUUACGUGAG | -1.44 ± 0.087 | -0.683 ± 0.11
ACAUAGCAAUAUUACGUAAA | -1.66 ± 0.12 | -1.75 ± 0.21
GAGCAGCAAUAUUACGUUUA | -1.17 ± 0.092 | -1 ± 0.097
AUGAAGCAAUAUUACGACAG | 0.129 ± 0.068 | 0.414 ± 0.095
UAACAGCAAUAUUACGCACG | -1.17 ± 0.058 | -0.421 ± 0.072
CGGGAGCAAUAUUACGGCCU | -3.25 ± 0.31 | -2.88 ± 0.44
GCCGAGCAAUAUUACGUGGG | -4.56 ± 0.42 | -2.85 ± 0.27
AGAAAGCAAUAUUACGCCCG | -0.679 ± 0.19 | -0.0334 ± 0.19
CUCUAGCAAUAUUACGCUGC | -3.58 ± 0.44 | –
CGCGAGCAAUAUUACGAAGC | – | -1.75 ± 0.45

Sequence | self-splicing fitness (ln) (30 °C) | self-splicing fitness (ln) (37 °C)
AGACAGCAAUAUUACGUUGG | -1.95 ± 0.094 | -1.99 ± 0.14
CGUCAGCAAUAUUACGAUAC | -2.65 ± 0.14 | -1.38 ± 0.12
GGUGAGCAAUAUUACGUCCC | -2.23 ± 0.39 | –
AUUAAGCAAUAUUACGUGCU | -1.58 ± 0.15 | -0.835 ± 0.14
CAUUAGCAAUAUUACGUCAA | -2.38 ± 0.23 | -2.96 ± 0.4
CUUAAGCAAUAUUACGUCGA | -1.85 ± 0.19 | -2.19 ± 0.38
GUCGAGCAAUAUUACGACCU | – | -1.74 ± 0.26
GCUUAGCAAUAUUACGGCUU | -0.91 ± 0.089 | -0.586 ± 0.11
UUACAGCAAUAUUACGGGGG | -2.2 ± 0.14 | -1.77 ± 0.15
AUAAAGCAAUAUUACGCUCC | -0.366 ± 0.16 | -0.365 ± 0.24
UUGCAGCAAUAUUACGGAUG | -2.29 ± 0.085 | -1.21 ± 0.1
UCGGAGCAAUAUUACGGCUU | -3.05 ± 0.32 | -1.45 ± 0.35
UACAAGCAAUAUUACGGCAA | -0.904 ± 0.072 | -0.0888 ± 0.088
UGCUAGCAAUAUUACGGAAA | -2.19 ± 0.27 | -2.19 ± 0.31
GCGAAGCAAUAUUACGUGCA | -1.21 ± 0.13 | -0.452 ± 0.097
ACCAAGCAAUAUUACGCUAA | -3.3 ± 0.16 | -2.33 ± 0.14
GACUAGCAAUAUUACGGCUC | 0.193 ± 0.1 | 0.351 ± 0.12
GUGGAGCAAUAUUACGAUUG | -1.98 ± 0.39 | –
GCAGAGCAAUAUUACGCCUG | – | -1.33 ± 0.47
UACGAGCAAUAUUACGCUGA | -3 ± 0.26 | -2.02 ± 0.24
GAGCAGCAAUAUUACGAGAA | -2.25 ± 0.31 | -2.61 ± 0.36
AGGUAGCAAUAUUACGCUUA | -1.2 ± 0.017 | -0.467 ± 0.034
AGGUAGCAAUAUUACGGUGC | -3.382 ± 0.029 | -1.98 ± 0.038
CUGGAGCAAUAUUACGCGGG | -3.62 ± 0.33 | -2.33 ± 0.31
GAUAAGCAAUAUUACGCUAA | -2.41 ± 0.24 | -2.28 ± 0.32
GUUCAGCAAUAUUACGCUGG | -4.05 ± 0.27 | -1.53 ± 0.13

Sequence | self-splicing fitness (ln) (30 °C) | self-splicing fitness (ln) (37 °C)
GAUUAGCAAUAUUACGCAUA | -2.08 ± 0.17 | -0.967 ± 0.14
CCGUAGCAAUAUUACGCGUU | -4.15 ± 0.39 | -2.86 ± 0.31
CUGGAGCAAUAUUACGACAG | -4.83 ± 0.31 | -2.42 ± 0.49
GUUUAGCAAUAUUACGGUGU | -1.95 ± 0.14 | -1.38 ± 0.13
CGGAAGCAAUAUUACGUGUA | -3.19 ± 0.17 | -3.6 ± 0.27
GUAAAGCAAUAUUACGAUUC | 0.475 ± 0.08 | 0.115 ± 0.091
AUGUAGCAAUAUUACGGUGG | -3.1 ± 0.27 | -2.77 ± 0.24
AUAGAGCAAUAUUACGUCAA | -2.19 ± 0.23 | -1.77 ± 0.24
UAUGAGCAAUAUUACGCUAC | -2.79 ± 0.2 | -2.25 ± 0.43
AUCAAGCAAUAUUACGCCGU | -1.19 ± 0.087 | -0.429 ± 0.1
UCACAGCAAUAUUACGGUAA | -1 ± 0.084 | -0.187 ± 0.088
GAGGAGCAAUAUUACGAUUU | -1.07 ± 0.1 | -0.084 ± 0.13
CAGUAGCAAUAUUACGGAAU | -3.7 ± 0.27 | -2.55 ± 0.18
GGACAGCAAUAUUACGUCUU | -3.29 ± 0.091 | -1.9 ± 0.099
GACUAGCAAUAUUACGGGAA | -2.32 ± 0.19 | -0.809 ± 0.16
ACGCAGCAAUAUUACGCGUA | -3.63 ± 0.23 | -2.1 ± 0.15
GCCUAGCAAUAUUACGUGGU | -3.71 ± 0.22 | -2.23 ± 0.25
CCAAAGCAAUAUUACGCGCG | -1.59 ± 0.075 | -0.994 ± 0.1
UCGUAGCAAUAUUACGGCGU | -3.46 ± 0.34 | -1.6 ± 0.22
AACGAGCAAUAUUACGUGAG | -3.58 ± 0.17 | -0.98 ± 0.13
CAUGAGCAAUAUUACGGGGG | -2.64 ± 0.23 | -2.64 ± 0.3
AACUAGCAAUAUUACGAGUC | -3.83 ± 0.33 | -1.77 ± 0.19
CUUUAGCAAUAUUACGUAUC | -3.56 ± 0.35 | -3.21 ± 0.4
CUUAAGCAAUAUUACGUUAA | -3.97 ± 0.39 | -2.63 ± 0.32
CCAUAGCAAUAUUACGUGUG | -2.23 ± 0.09 | -1.07 ± 0.08
CACUAGCAAUAUUACGAAGU | -2.82 ± 0.21 | -3.06 ± 0.29
